Source: US12497461B2, “Human NTCP-binding antibody capable of inhibiting infection of hepatitis B virus (HBV) to human hepatocytes” (priority 2019, dated 2025)
Where a chain is given by its changes, count along the chain named.

Legend:
[1] = type: in vivo, human hepatocyte chimeric mouse (uPA/SCID); conditions: administration group; highest at HBV inoculation, decreased on and after the first week
Procedure: Preparation of uPA/SCID mice and transplantation of human hepatocytes were carried out in accordance with the report (Tateno C. et al., Am. J. Pathol., 165: 901-912, 2004). To all mice, human hepatocytes taken from the same donor were transplanted. Twenty-three mice, which are obtained by replacing 90% or more of the liver tissue with human hepatocytes by transplantation, were used in the experiment. To these mice, human serum containing 10^3 copies of HBV was administered (inoculated) through the tail vein. One day before and two days after HBV inoculation, 2.0 mg of purified N6HB426-20 antibody was intravenously injected. On Day 7, 14, and 21 after the HBV inoculation, 1.0 mg of the same antibody was intraperitoneally injected. As a control experiment, the same dose of normal mouse IgG antibody (Normal Mouse IgG, Whole Molecule, Purified, FUJIFILM Wako Pure Chemical Corporation) was injected in the same manner. A single mouse died on Day 0 after administration was excluded from the experiment. […]
For quantification of HBV-DNA, 10 μL of mouse serum was used. […] The serum HBV-DNA level was measured by a real-time PCR method using cobas 6800 System (Roche Diagnostics KK, Tokyo, Japan). In this measurement method, the lower limit of quantification was 3.61 log copies/mL. Mouse serum (10 μL) was diluted 30 folds with PBS and bile acid was measured.

human NTCP = target: T1, human NTCP (Homo sapiens, UniProt Q14973); experiment: In vitro bile acid ([3H]-taurocholic acid) uptake in human NTCP-expressing HepG2 (Example 1); type: cell-based
T1 construct: expressed in transfected cells; host or cells: HepG2 cells, lentiviral transduction
T1 sequence (Q14973 1-349): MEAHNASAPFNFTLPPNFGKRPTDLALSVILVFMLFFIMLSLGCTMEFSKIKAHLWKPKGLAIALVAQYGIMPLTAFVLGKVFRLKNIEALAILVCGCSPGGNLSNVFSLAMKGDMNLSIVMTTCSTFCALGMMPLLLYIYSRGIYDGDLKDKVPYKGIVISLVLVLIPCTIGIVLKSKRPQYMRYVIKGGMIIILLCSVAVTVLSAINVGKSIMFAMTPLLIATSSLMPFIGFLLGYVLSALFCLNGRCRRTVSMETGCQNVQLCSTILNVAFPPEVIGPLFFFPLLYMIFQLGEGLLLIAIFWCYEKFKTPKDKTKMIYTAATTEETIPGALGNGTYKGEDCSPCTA

human NTCP Y146A mutant = target: T2, human NTCP Y146A mutant (Homo sapiens, UniProt Q14973, Y146A); experiment: Antibody binding to NTCP mutant (epitope mapping); conditions: FIG. 5A, left
T2 construct: expressed in transfected cells; host or cells: HepG2 or Huh7 cells, lentiviral transduction
T2 sequence (Q14973 1-349 Y146A): T1 sequence (Q14973 1-349) with Y146A
Procedure: (§1) To establish NTCP expression cells, HepG2 cells or Huh7 cells were infected with a lentiviral vector having a nucleic acid encoding a wild-type NTCP or each of NTCP mutants. Forty-eight hours after infection, the cells were subjected to an immunofluorescence assay or a viral infection assay.
(§2) Huh7 cells expressing a wild-type NTCP or each of the NTCP mutants were fixed with 4% paraformaldehyde, and then, a permeation treatment with 0.3% Triton X-100 was performed. Each of the NTCPs was detected by using N6HB426-20 antibody or HE1-9-10 antibody (dilution ratio: 1:200) and an Alexa Fluor488-conjugate goat anti-mouse IgG antibody (secondary antibody) (Thermo Fisher Scientific) (dilution ratio: 1:1000). Imaging of the cells was carried out by use of a laser scanning confocal microscope using FLUOVIEW fv1000 and IX73 (OLYMPAS).
(§3) In this manner, the relationship with a region important for HBV infection was clarified. Sensitivity to HBV infection, a change in inhibitory activity of the antibody and contribution of a predetermined amino acid residue to FACS analysis were evaluated by alanine scanning method and use of an NTCP mutant transfectant. […] However, both ends of the amino acid residues at positions 276-277 (i.e., amino acid residues at positions 274-275 and 278-279) serve as an epitope involved in HBV infection. […] The phenomenon was further precisely analyzed. […]

[2] = target: T3, human NTCP triple mutant (YDD146, 149, and 152AAA) (Homo sapiens, UniProt Q14973, D149A/D152A/Y146A); experiment: Antibody binding to NTCP mutant (epitope mapping); conditions: FIG. 5B
T3 construct: expressed in transfected cells; host or cells: HepG2 or Huh7 cells, lentiviral transduction
T3 sequence (Q14973 1-349 Y146A/D149A/D152A): T1 sequence (Q14973 1-349) with Y146A, D149A, D152A
Procedure: as §1, §2, §3

B1: N6HB426-20 antibody: anti-human NTCP monoclonal antibody from a sub-clone of N6HB426 hybridoma; VH SEQ ID NO: 3, VL SEQ ID NO: 4 (antibody, V domains shown)
VH: QVQLQQSGAELVKPGASVKLSCKASDFTFTEYTIHWIKQMSGQGLEWIGWFYPGSGDIKYSEKFKDKATLTADKSSSTVYMELNRLTSEDSAVYFCARHMRDFRGFYYGRFYFDYWGQGTTLTVSS
VL: EIVLTQSPAIMSASPGEKVTITCRASSSVSSSYLHWYQQKSGVSPKLWIYSTSNLASGVPARFSGSGSGTSYSLTINSVEAEDAATYYCQQYSGYRWTFGGGTTLEIKRA
modifications: N6HB426 antibody heavy chain variable region; N6HB426 antiibody light chain variable region
[1]
  bile acid level in the sera: transient increase
Human NTCP; 1000 nM, 1 µM
  inhibition of bile acid uptake: 3%
Human NTCP; 1000 nM, listed as purified N6HB426 antibody, 1 µM
  inhibition of bile acid uptake: at most 2%
Human NTCP; at concentration required for inhibition of infection (IC50 20 to 30 nM)
  inhibition of bile acid uptake: virtually did not inhibit
Human NTCP Y146A mutant
  binding to single mutant Y146A: significantly low binding
[2]
  binding to triple mutant (YDD146, 149, and 152AAA): weak binding
